# In IntAct's records for PubMed 24590075:
# B1: Zinc finger MYND domain-containing protein 11 (Mus musculus), Q8R5C8 (parent)
# chain: MARLTKRRQADTKAIQHLWAAIEIIRNQKQIANIDRITKYMSRVHGMHPKETTRQLSLAVKDGLIVETLTVGCKGSKAGIEQEGYWLPGDEIDWETETHDWYCFECHLPGEVLICDLCFRVYHSKCLSDEFRLRDSSSHWQCPVCRSIKKKHSNKQEMGTYLRFIVSRMKERAIDLNKKGKDSKHPMYRRLVHSAVDVPTIQEKVNEGKYRSYEEFKADAQLLLHNTVIFYGADSEQADIARMLYKDTCHELDELQLCKNCFYLSNARPDNWFCYPCIPNHELVWAKMKGFGFWPAKVMQKEDNQVDVRFFGHHHQRAWIPSENIQDITVNVHRLHVKRSMGWKKACDELELHQRFLREGRFWKSKNEDRGEEEAESSISSTSNEQLKVTQEPRAKKGRRNQSVEPKKEEPEPETEAVSSSQEIPTMPQPIERVSVSTQTKKLSASSPRMLHRSTQTTSDGVCQSMCHDKYTKIFNDFKDRMKSDHKRETERVVREALEKLRSEMEEEKRQAVNKAVASLQGDMDRKGKQLKEKCKEEFVEEIKKLAAQHKQLISQTKKKQWCYNCEEEAMYHCCWNTSYCSIKCQQEHWHAEHKRTCRRKR
# How the values were obtained:
# h33_human H3-3A, P84243 [1] = variants of: B1; details: with h33_human H3-3A
# h33_human H3-3A, P84243 [2] = variants of: B1; details: with h33_human H3-3A; remark: listed apart in the source
Variant,"effect of a mutation on the interaction (h33_human H3-3A, P84243 [1])","effect of a mutation on the interaction (h33_human H3-3A, P84243 [2])"
E251A,disrupting interaction strength,decreasing interaction strength
D307N,–,decreasing interaction strength
F291A,disrupting interaction strength,–
F310A,disrupting interaction strength,decreasing interaction strength
N266A,disrupting interaction strength,decreasing interaction strength
R168A,disrupting interaction strength,decreasing interaction strength
W294A,disrupting interaction strength,decreasing interaction strength
